Experiments:
Type in all cases: biochemical, Trichoderma reesei
[1] = substrate: [H][C@@]1(O[C@H]2[C@H](O)[C@@H](O)[C@H](Oc3ccc([N+](=O)[O-])cc3)O[C@@H]2CO)O[C@H](CO)[C@H](O)[C@H](O)[C@H]1O; assay: pNP-Lactopyranoside (pNP-L) assay, kinetics, TrCel7A 1-1d; conditions: other: TrCel7A 1-1d, 45° C., 30 minutes, pNP-L 8 mM-0.133 mM
Source text: (§1) The wild-type (wt) TrCel7A sequence was aligned with all the high-pNP-L activity sequences in order to identify the corresponding positions of mutations in TrCel7A. Without being bound by theory, these mutations should result in improving pNP-L activity of TrCel7A. PCR-based point mutagenesis or gene synthesis was used to generate the corresponding 9 TrCel7A mutants.
(§2) Cel7A was purified as described in Linger et al., Biotechnol Biofuels 8:45 (2015). Briefly, fermentation broths (˜8 to 10 L) were harvested, vacuum filtered, concentrated, and then loaded onto a 26/10 Phenyl Sepharose Fast Flow column. Buffer A was 20 mM Bis-Tris pH 6.5 and buffer B was 20 mM Bis-Tris pH 6.5, 2.0 M (NH4)2SO4. After binding and washing, a descending gradient of 80% B (1.6 M (NH4)2SO4) to 0% B over eight column volumes was used to elute the bound proteins from the column. Active fractions were identified by a p-nitrophenyl-β-(1-4)-D-lactopyranoside (pNP-L) activity assay. The pNP-L-active fractions were pooled and concentrated as needed. Protein was desalted and exchanged into 20 mM Bis-Tris buffer pH 6.5. […]
(§3) The pNP-L assay was performed by incubating 150 μL of 2 mM pNP-L with 25 μL of sample at 45° C. for 30 minutes. Reactions were quenched with 25 μL of 1 M Na2CO3, and the absorbance at 405 nm was measured. […]

[2] = substrate: [H][C@@]1(O[C@H]2[C@H](O)[C@@H](O)[C@H](Oc3ccc([N+](=O)[O-])cc3)O[C@@H]2CO)O[C@H](CO)[C@H](O)[C@H](O)[C@H]1O; assay: pNP-Lactopyranoside (pNP-L) assay, kinetics, TrCel7A 2-18c; conditions: other: TrCel7A 2-18c, 45° C., 30 minutes, pNP-L 8 mM-0.133 mM
Source text: as §1, §2, §3

[3] = substrate: [H][C@@]1(O[C@H]2[C@H](O)[C@@H](O)[C@H](Oc3ccc([N+](=O)[O-])cc3)O[C@@H]2CO)O[C@H](CO)[C@H](O)[C@H](O)[C@H]1O; assay: pNP-Lactopyranoside (pNP-L) assay, kinetics, TrCel7A WT; conditions: other: TrCel7A WT, 45° C., 30 minutes, pNP-L 8 mM-0.133 mM
Experimental: as §2, with “6.5. This sample was then loaded onto a Tricorn 10/100 anion exchange column packed with Source 15Q and eluted with a 0-50% salt gradient over 30 column volumes. Buffers were 20 mM Bis-Tris pH 6.5 (A) and the same supplemented with 1.0 M NaCl (B). pNP-L activity was followed again to identify the active fractions.” for “6.5.”
as §3

[4] = substrate: [H][C@@]1(O[C@H]2[C@H](O)[C@@H](O)[C@H](Oc3ccc([N+](=O)[O-])cc3)O[C@@H]2CO)O[C@H](CO)[C@H](O)[C@H](O)[C@H]1O; assay: pNP-Lactopyranoside (pNP-L) assay, kinetics, TrCel7A 6-53a; conditions: other: TrCel7A 6-53a, 45° C., 30 minutes, pNP-L 8 mM-0.133 mM
Source text: as §1, §2, §3

[5] = substrate: [H][C@@]1(O[C@H]2[C@H](O)[C@@H](O)[C@H](Oc3ccc([N+](=O)[O-])cc3)O[C@@H]2CO)O[C@H](CO)[C@H](O)[C@H](O)[C@H]1O; assay: pNP-Lactopyranoside (pNP-L) assay, kinetics, TrCel7A 11-35a; conditions: other: TrCel7A 11-35a, 45° C., 30 minutes, pNP-L 8 mM-0.133 mM
Source text: as §1, §2, §3

[6] = substrate: [H][C@@]1(O[C@H]2[C@H](O)[C@@H](O)[C@H](Oc3ccc([N+](=O)[O-])cc3)O[C@@H]2CO)O[C@H](CO)[C@H](O)[C@H](O)[C@H]1O; assay: pNP-Lactopyranoside (pNP-L) assay, kinetics, TrCel7A 6-87a; conditions: other: TrCel7A 6-87a, 45° C., 30 minutes, pNP-L 8 mM-0.133 mM
Source text: as §1, §2, §3

[7] = substrate: [H][C@@]1(O[C@H]2[C@H](O)[C@@H](O)[C@H](Oc3ccc([N+](=O)[O-])cc3)O[C@@H]2CO)O[C@H](CO)[C@H](O)[C@H](O)[C@H]1O; assay: pNP-Lactopyranoside (pNP-L) assay, kinetics, TrCel7A 1-11; conditions: other: TrCel7A 1-11, 45° C., 30 minutes, pNP-L 8 mM-0.133 mM
Source text: as §1, §2, §3

B1: Trichoderma reesei Cel7A (TrCel7A, SEQ ID NO: 37) variant 1-1d, A241V (with secretion signal) / A224V (without secretion signal) (Trichoderma reesei RUT C-30; … (protein)
chain: QSACTLQSETHPPLTWQKCSSGGTCTQQTGSVVIDANWRWTHATNSSTNCYDGNTWSSTLCPDNETCAKNCCLDGAAYASTYGVTTSGNSLSIGFVTQSAQKNVGARLYLMASDTTYQEFTLLGNEFSFDVDVSQLPCGLNGALYFVSMDADGGVSKYPTNTAGAKYGTGYCDSQCPRDLKFINGQANVEGWEPSSNNANTGIGGHGSCCSEMDIWEANSISEVLTPHPCTTVGQEICEGDGCGGTYSDNRYGGTCDPDGCDWNPYRLGNTSFYGPGSSFTLDTTKKLTVVTQFETSGAINRYYVQNGVTFQQPNAELGSYSGNELNDDYCTAEEAEFGGSSFSDKGGLTQFKKATSGGMVLVMSLWDDYYANMLWLDSTYPTNETSSTPGAVRGSCSTSSGVPAQVESQSPNAKVTFSNIKFGPIGSTGNPSGGNPPGGNPPGTTTTRRPATTTGSSPGPTQSHYGQCGGIGYSGPTVCASGTTCQVLNPYYSQCL
kcat [1]: 0.933 ± 0.0667 s⁻¹

B2: Trichoderma reesei Cel7A (TrCel7A, SEQ ID NO: 37) variant 2-18c, T406S/A389V (with secretion signal) / T389S/A372V (without secretion signal) (Trichoderma … (protein)
chain: QSACTLQSETHPPLTWQKCSSGGTCTQQTGSVVIDANWRWTHATNSSTNCYDGNTWSSTLCPDNETCAKNCCLDGAAYASTYGVTTSGNSLSIGFVTQSAQKNVGARLYLMASDTTYQEFTLLGNEFSFDVDVSQLPCGLNGALYFVSMDADGGVSKYPTNTAGAKYGTGYCDSQCPRDLKFINGQANVEGWEPSSNNANTGIGGHGSCCSEMDIWEANSISEALTPHPCTTVGQEICEGDGCGGTYSDNRYGGTCDPDGCDWNPYRLGNTSFYGPGSSFTLDTTKKLTVVTQFETSGAINRYYVQNGVTFQQPNAELGSYSGNELNDDYCTAEEAEFGGSSFSDKGGLTQFKKATSGGMVLVMSLWDDYYVNMLWLDSTYPTNETSSSPGAVRGSCSTSSGVPAQVESQSPNAKVTFSNIKFGPIGSTGNPSGGNPPGGNPPGTTTTRRPATTTGSSPGPTQSHYGQCGGIGYSGPTVCASGTTCQVLNPYYSQCL
Km [2]: 1980 ± 180 µM | kcat [2]: 0.467 ± 0.117 s⁻¹

B3: Trichoderma reesei Cel7A (TrCel7A) wild-type, SEQ ID NO: 37 (Trichoderma reesei RUT C-30) (protein)
chain: QSACTLQSETHPPLTWQKCSSGGTCTQQTGSVVIDANWRWTHATNSSTNCYDGNTWSSTLCPDNETCAKNCCLDGAAYASTYGVTTSGNSLSIGFVTQSAQKNVGARLYLMASDTTYQEFTLLGNEFSFDVDVSQLPCGLNGALYFVSMDADGGVSKYPTNTAGAKYGTGYCDSQCPRDLKFINGQANVEGWEPSSNNANTGIGGHGSCCSEMDIWEANSISEALTPHPCTTVGQEICEGDGCGGTYSDNRYGGTCDPDGCDWNPYRLGNTSFYGPGSSFTLDTTKKLTVVTQFETSGAINRYYVQNGVTFQQPNAELGSYSGNELNDDYCTAEEAEFGGSSFSDKGGLTQFKKATSGGMVLVMSLWDDYYANMLWLDSTYPTNETSSTPGAVRGSCSTSSGVPAQVESQSPNAKVTFSNIKFGPIGSTGNPSGGNPPGGNPPGTTTTRRPATTTGSSPGPTQSHYGQCGGIGYSGPTVCASGTTCQVLNPYYSQCL
kcat [3]: 0.333 ± 0.0167 s⁻¹

B4: Trichoderma reesei Cel7A (TrCel7A, SEQ ID NO: 37) variant 6-53a, I110M/Y283N/T462I (with secretion signal) / I93M/Y266N/T445I (without secretion signal) … (protein)
chain: QSACTLQSETHPPLTWQKCSSGGTCTQQTGSVVIDANWRWTHATNSSTNCYDGNTWSSTLCPDNETCAKNCCLDGAAYASTYGVTTSGNSLSMGFVTQSAQKNVGARLYLMASDTTYQEFTLLGNEFSFDVDVSQLPCGLNGALYFVSMDADGGVSKYPTNTAGAKYGTGYCDSQCPRDLKFINGQANVEGWEPSSNNANTGIGGHGSCCSEMDIWEANSISEALTPHPCTTVGQEICEGDGCGGTYSDNRYGGTCDPDGCDWNPNRLGNTSFYGPGSSFTLDTTKKLTVVTQFETSGAINRYYVQNGVTFQQPNAELGSYSGNELNDDYCTAEEAEFGGSSFSDKGGLTQFKKATSGGMVLVMSLWDDYYANMLWLDSTYPTNETSSTPGAVRGSCSTSSGVPAQVESQSPNAKVTFSNIKFGPIGSTGNPSGGNPPGGNPPGITTTRRPATTTGSSPGPTQSHYGQCGGIGYSGPTVCASGTTCQVLNPYYSQCL
kcat [4]: 0.35 ± 0.05 s⁻¹

B5: Trichoderma reesei Cel7A (TrCel7A, SEQ ID NO: 37) variant 11-35a, G461D (with secretion signal) / G444D (without secretion signal) (Trichoderma reesei RUT … (protein)
chain: QSACTLQSETHPPLTWQKCSSGGTCTQQTGSVVIDANWRWTHATNSSTNCYDGNTWSSTLCPDNETCAKNCCLDGAAYASTYGVTTSGNSLSIGFVTQSAQKNVGARLYLMASDTTYQEFTLLGNEFSFDVDVSQLPCGLNGALYFVSMDADGGVSKYPTNTAGAKYGTGYCDSQCPRDLKFINGQANVEGWEPSSNNANTGIGGHGSCCSEMDIWEANSISEALTPHPCTTVGQEICEGDGCGGTYSDNRYGGTCDPDGCDWNPYRLGNTSFYGPGSSFTLDTTKKLTVVTQFETSGAINRYYVQNGVTFQQPNAELGSYSGNELNDDYCTAEEAEFGGSSFSDKGGLTQFKKATSGGMVLVMSLWDDYYANMLWLDSTYPTNETSSTPGAVRGSCSTSSGVPAQVESQSPNAKVTFSNIKFGPIGSTGNPSGGNPPGGNPPDTTTTRRPATTTGSSPGPTQSHYGQCGGIGYSGPTVCASGTTCQVLNPYYSQCL
kcat [5]: 0.183 s⁻¹

B6: Trichoderma reesei Cel7A (TrCel7A, SEQ ID NO: 37) variant 6-87a, D274V (with secretion signal) / D257V (without secretion signal) (Trichoderma reesei RUT C-30; … (protein)
chain: QSACTLQSETHPPLTWQKCSSGGTCTQQTGSVVIDANWRWTHATNSSTNCYDGNTWSSTLCPDNETCAKNCCLDGAAYASTYGVTTSGNSLSIGFVTQSAQKNVGARLYLMASDTTYQEFTLLGNEFSFDVDVSQLPCGLNGALYFVSMDADGGVSKYPTNTAGAKYGTGYCDSQCPRDLKFINGQANVEGWEPSSNNANTGIGGHGSCCSEMDIWEANSISEALTPHPCTTVGQEICEGDGCGGTYSDNRYGGTCVPDGCDWNPYRLGNTSFYGPGSSFTLDTTKKLTVVTQFETSGAINRYYVQNGVTFQQPNAELGSYSGNELNDDYCTAEEAEFGGSSFSDKGGLTQFKKATSGGMVLVMSLWDDYYANMLWLDSTYPTNETSSTPGAVRGSCSTSSGVPAQVESQSPNAKVTFSNIKFGPIGSTGNPSGGNPPGGNPPGTTTTRRPATTTGSSPGPTQSHYGQCGGIGYSGPTVCASGTTCQVLNPYYSQCL
kcat [6]: 0.4 ± 0.0667 s⁻¹

B7: Trichoderma reesei Cel7A (TrCel7A, SEQ ID NO: 37) variant 1-11, L366M (with secretion signal) / L349M (without secretion signal) (Trichoderma reesei RUT C-30; … (protein)
chain: QSACTLQSETHPPLTWQKCSSGGTCTQQTGSVVIDANWRWTHATNSSTNCYDGNTWSSTLCPDNETCAKNCCLDGAAYASTYGVTTSGNSLSIGFVTQSAQKNVGARLYLMASDTTYQEFTLLGNEFSFDVDVSQLPCGLNGALYFVSMDADGGVSKYPTNTAGAKYGTGYCDSQCPRDLKFINGQANVEGWEPSSNNANTGIGGHGSCCSEMDIWEANSISEALTPHPCTTVGQEICEGDGCGGTYSDNRYGGTCDPDGCDWNPYRLGNTSFYGPGSSFTLDTTKKLTVVTQFETSGAINRYYVQNGVTFQQPNAELGSYSGNELNDDYCTAEEAEFGGSSFSDKGGMTQFKKATSGGMVLVMSLWDDYYANMLWLDSTYPTNETSSTPGAVRGSCSTSSGVPAQVESQSPNAKVTFSNIKFGPIGSTGNPSGGNPPGGNPPGTTTTRRPATTTGSSPGPTQSHYGQCGGIGYSGPTVCASGTTCQVLNPYYSQCL
kcat [7]: 0.182 ± 0.00333 s⁻¹
